Assay results: US20230023414A1, “METHODS AND DEVICES FOR TREATING A DISEASE WITH BIOTHERAPEUTICS” (PROGENITY, INC., priority 2018, published 2023)
Where “and” joins values, the source holds several entries; their conditions need not be identical. Identical values can stand only once. Like-named read-outs stand apart in the source and are kept apart here. Marks after values point to notes of the source that are not given here.

Key:
[1] = cited from earlier work; for Baseline dose: Bioavail.: dose info for non-approved agents from clinical trial information
[2] = pig, in vivo; for (AUC)T0-T240 h ± SEM / Tmax: 1.2 mg
[3] = Pharmacokinetics (blood insulin) of regular human insulin (NOVOLIN R) after subcutaneous or intra-jejunal jet delivery in swine; format: in vivo, Yorkshire female swine; conditions: for Cmax / Tmax: blood insulin
Method: (§1) A total of 18 Yorkshire female swine in good health and weighing 60-70 kg each were included in this study. Swine were divided into two groups with 9 animals per group. […] A sham surgical laparotomy was performed. […] The jet delivery device was configured with the single nozzle in an axial orientation.
Swine were divided into two groups with 9 animals per group. […] In all 18 animals, a laparotomy procedure was performed to expose the abdominal cavity. Animals remained under anesthesia during the entire procedure for the PK/PD study.
For the laparotomy in group 02, a small segment of the jejunal mucosa and serosa was exposed by midline laparotomy and the jet delivery device was inserted through antimesenteric incision.
(§2) Blood samples were kept on wet ice until centrifugation and separation of plasma. […] Glucose was monitored every five (5) minutes during the study by portable glucose analyzer (StatStrip (SS) hospital glucose monitoring system (Nova Biomedical, Waltham, Mass.)). At each time point, approximate 0.1 mL of blood was drawn and immediately placed on a glucose monitoring test strip, and the whole blood glucose concentration was measured by the SS in triplicate.
The animals were anesthetized for the entire ECP.

blood glucose = assay: Euglycemic clamp procedure: blood glucose and dextrose infusion after NOVOLIN R SC or IJ in swine; format: in vivo, Yorkshire female swine; conditions: for mean blood glucose level: euglycemic clamp, swine
Method: as §1, with “orientation. The device was held in place during the laparotomy insertion, and the nozzle outlet was directed to face the jejunal wall to direct the jet of the NOVOLIN® R to the GI tract.” for “orientation.”
as §2
A euglycemic clamp procedure (ECP) was employed to compare pharmacokinetics and pharmacodynamics of regular human Insulin (NOVOLIN® R) delivered subcutaneously (SC) in the neck versus intra-jejunally (IJ) by the jet delivery device in the small intestine. ECP was used to quantify the amount of glucose required to maintain normoglycemia after exogenous bolus of insulin. […] The animals were anesthetized for the entire ECP.

[4] = cited from earlier work
[5] = IJ administration by jet delivery device, swine, Average
[6] = IJ administration by jet delivery device, swine, individual animals
[7] = SC administration, swine, Average
[8] = SC administration, swine, individual animals

CC[C@H](C)[C@H](NC(=O)[C@H](Cc1ccccc1)NC(=O)[C@H](CCC(=O)O)NC(=O)[C@H](CCCCNC(=O)COCCOCCNC(=O)COCCOCCNC(=O)CC[C@H](NC(=O)CCCCCCCCCCCCCCCCC(=O)O)C(=O)O)NC(=O)[C@H](C)NC(=O)[C@H](C)NC(=O)[C@H](CCC(N)=O)NC(=O)CNC(=O)[C@H](CCC(=O)O)NC(=O)[C@H](CC(C)C)NC(=O)[C@H](Cc1ccc(O)cc1)NC(=O)[C@H](CO)NC(=O)[C@H](CO)NC(=O)[C@@H](NC(=O)[C@H](CC(=O)O)NC(=O)[C@H](CO)NC(=O)[C@@H](NC(=O)[C@H](Cc1ccccc1)NC(=O)[C@@H](NC(=O)CNC(=O)[C@H](CCC(=O)O)NC(=O)C(C)(C)NC(=O)[C@@H](N)Cc1cnc[nH]1)[C@@H](C)O)[C@@H](C)O)C(C)C)C(=O)N[C@@H](C)C(=O)N[C@@H](Cc1c[nH]c2ccccc12)C(=O)N[C@@H](CC(C)C)C(=O)N[C@H](C(=O)N[C@@H](CCCNC(=N)N)C(=O)NCC(=O)N[C@@H](CCCNC(=N)N)C(=O)NCC(=O)O)C(C)C [Semaglutide]
Approved Dosing Info: Bio Avail ([1]; SC administration): 89%

CC[C@H](C)[C@H](NC(=O)[C@H](CCC(=O)O)NC(=O)[C@H](CO)NC(=O)[C@@H](NC(=O)[C@@H](N)CO)C(C)C)C(=O)N[C@@H](CCC(N)=O)C(=O)N[C@@H](CC(C)C)C(=O)N[C@@H](CCSC)C(=O)N[C@@H](Cc1cnc[nH]1)C(=O)N[C@@H](CC(N)=O)C(=O)N[C@@H](CC(C)C)C(=O)NCC(=O)N[C@@H](CCCCN)C(=O)N[C@@H](Cc1cnc[nH]1)C(=O)N[C@@H](CC(C)C)C(=O)N[C@@H](CC(N)=O)C(=O)N[C@@H](CO)C(=O)N[C@@H](CCSC)C(=O)N[C@@H](CCC(=O)O)C(=O)N[C@@H](CCCN=C(N)N)C(=O)N[C@H](C(=O)N[C@@H](CCC(=O)O)C(=O)N[C@@H](Cc1c[nH]c2ccccc12)C(=O)N[C@@H](CC(C)C)C(=O)N[C@@H](CCCN=C(N)N)C(=O)N[C@@H](CCCCN)C(=O)N[C@@H](CCCCN)C(=O)N[C@@H](CC(C)C)C(=O)N[C@@H](CCC(N)=O)C(=O)N[C@@H](CC(=O)O)C(=O)N[C@H](C(=O)N[C@@H](Cc1cnc[nH]1)C(=O)N[C@@H](CC(N)=O)C(=O)N[C@@H](Cc1ccccc1)C(=O)O)C(C)C)C(C)C [teriparatide]
Approved Dosing Info: Bio Avail ([1]; SC administration): 95%

Dulaglutide: long-acting GLP-1 receptor agonist, about 63 kDa; GLP-1 analogue linked to modified human IgG4 Fc; TRULICITY solution 3 mg/mL
Approved Dosing Info: Bio Avail ([1]; SC administration): 65% | AUCID (±SEM) [2]: 3890.00 ± 94.73 ng·h/mL | Bioavailability relative to SC [2]: 49.11 ± 0.08% ^a | (AUC)T0-T240 h ± SEM [2]: 4355.86 ± 1094.57 ^a ng · hr/mL | Tmax [2]: 8 h | Bioavailability relative to IV ([2]; iv): 100% | (AUC)T0-T240 h ± SEM ([2]; iv): 16429.33 ± 600.93 ng·h/mL | Tmax ([2]; iv): 1 h | Bioavailability relative to SC ([2]; sc): 100% | (AUC)T0-T240 h ± SEM ([2]; sc): 8869 ± 887.33 ng·h/mL | Tmax ([2]; sc): 6 h

Novolin® R: regular human insulin (recombinant), aqueous solution 100 units/mL with glycerol, metacresol, zinc chloride, pH 7.4
blood insulin level ([3]; animal 18P18, SC administration group): significantly higher than the rest of the animals in the group | Cmax [3, 5]: 77.40 uIU/mL | Tmax [3, 5]: 55.63 min | Cmax [3, 6]: 40.93 uIU/mL and 96.77 uIU/mL and 5.03 uIU/mL and 7.96 uIU/mL and 48.77 uIU/mL and 85.38 uIU/mL and 207.96 uIU/mL and 126.39 uIU/mL | Tmax [3, 6]: 20 min and 50 min and 90 min (2×) and 40 min (3×) | Cmax [3, 7]: 202.94 uIU/mL | Tmax [3, 7]: 87.14 min | Cmax [3, 8]: 451.00 uIU/mL and 60.74 uIU/mL and 354.00 uIU/mL and 356.60 uIU/mL and 65.71 uIU/mL and 59.18 uIU/mL and 73.34 uIU/mL | Tmax [3, 8]: 50 min (2×) and 180 min and 105 min and 30 min and 120 min | time to maximum plasma concentration (Tmax) ([3]; jejunum administration group): 0.9272 h | time to maximum plasma concentration (Tmax) ([3]; subcutaneous administration group): 1.452 h | maximum plasma concentration Cmax, SC group versus IJ group ([3]; swine): higher than that of the IJ administration group | AUC of blood insulin, SC group versus IJ group ([3]; swine, AUC0-420 min): higher than that of the IJ administration group | mean dextrose infusion rate, IJ versus SC group (blood glucose; 75 minutes to 420 minutes post-administration): higher in the SC administration group | mean blood glucose level (blood glucose; IJ administration group (jet delivery device)): 89.6 mg/dL | mean blood glucose level (blood glucose; SC administration group): 83.5 mg/dL | mean dextrose infusion rate, IJ versus SC group (blood glucose; first 70 minutes after administration): higher in the IJ administration group

alirocumab
Approved Dosing Info: Bio Avail ([1]; SC administration): 85%

certolizumab pegol
Approved Dosing Info: Bio Avail ([1]; SC administration): 80%

dalteparin
bioavailability by SC injection ([1]; SC injection): approximately 87% | half-life ([1]; in vivo): 3 to 5 h | stability at room temperature [4]: stable at room temperature

denosumab
Approved Dosing Info: Bio Avail ([1]; SC administration): 61%

etanercept
Approved Dosing Info: Bio Avail ([1]; SC administration): 58%

glucagon (SC)
Baseline dose: Bioavail. ([1]; SC administration): 100.0%

golimumab
Approved Dosing Info: Bio Avail ([1]; SC administration): 51%

natalizumab
Approved Dosing Info: Bio Avail ([1]; IV administration): 100%

sargramostim
Approved Dosing Info: Bio Avail ([1]; IV administration): 100%

secukinumab
Approved Dosing Info: Bio Avail ([1]; SC administration): 73%

somatropin
Baseline dose: Bioavail. ([1]; SC administration): 80.5%

tocilizumab
Approved Dosing Info: Bio Avail ([1]; SC administration): 80%

ustekinumab
Approved Dosing Info: Bio Avail ([1]; SC administration): 78%

vedolizumab
Approved Dosing Info: Bio Avail ([1]; IV administration): 100%
